Data taken from the supplement of paper PMC10065799, “High-throughput profiling of sequence recognition by tyrosine kinases and SH2 domains using bacterial peptide display” (eLife, 2023).

Biological target: Fes (UniProt P07332)
Experiment: phosphorylation enrichment, bacterial display (enrichment ratio); higher = better substrate or ligand; peptides without Tyr show the background
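Also: 11-residue human phosphosite peptides and single-mutation variants displayed on the E. coli surface, counted by deep sequencing, each peptide's frequency after selection divided by its frequency in the unselected input library; frequency after pTyr selection over input frequency; kinase dosed for 20-30% of maximal phosphorylation in three min.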

Fes, sequence (P07332 whole entry, looked up): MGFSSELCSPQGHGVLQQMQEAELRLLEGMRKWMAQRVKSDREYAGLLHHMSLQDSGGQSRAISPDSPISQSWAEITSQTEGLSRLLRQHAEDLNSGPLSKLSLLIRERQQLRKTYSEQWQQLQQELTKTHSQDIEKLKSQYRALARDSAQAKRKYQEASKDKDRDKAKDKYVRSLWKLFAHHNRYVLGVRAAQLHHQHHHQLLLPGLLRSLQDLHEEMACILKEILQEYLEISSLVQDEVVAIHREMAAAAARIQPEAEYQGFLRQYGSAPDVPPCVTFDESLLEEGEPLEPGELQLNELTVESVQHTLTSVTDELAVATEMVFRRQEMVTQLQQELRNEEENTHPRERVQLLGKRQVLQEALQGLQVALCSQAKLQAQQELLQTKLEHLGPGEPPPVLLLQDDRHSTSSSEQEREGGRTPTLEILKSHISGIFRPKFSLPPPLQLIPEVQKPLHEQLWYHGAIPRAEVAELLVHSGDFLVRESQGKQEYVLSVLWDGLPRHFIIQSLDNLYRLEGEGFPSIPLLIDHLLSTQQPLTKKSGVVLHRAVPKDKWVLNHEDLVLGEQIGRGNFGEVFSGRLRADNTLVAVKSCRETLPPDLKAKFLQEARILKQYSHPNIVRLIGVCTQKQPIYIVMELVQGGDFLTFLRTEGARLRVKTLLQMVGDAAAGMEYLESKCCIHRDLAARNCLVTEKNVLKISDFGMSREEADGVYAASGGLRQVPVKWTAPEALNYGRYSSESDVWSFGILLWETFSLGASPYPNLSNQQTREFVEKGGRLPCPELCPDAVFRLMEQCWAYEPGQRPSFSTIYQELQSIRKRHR

Sequence | phosphorylation enrichment
KYWREYILSLE [GPC3_Y299] | 1.05
VAMELYVFGGV [GAN_Y471] | 1.64
TKGNEYVFRVA | 0.82
DENWFYTQAAS [RPS19_Y54_R56Q] | 1.06
PTEAQYRFIYM [PTPN11_Y511_Q506P] | 2.2
FAKTQYPDVFA [CRX_Y63_YF] | 0.74
FLKDVYVDSKD [NDUFAF4_Y69] | 0.983
QFQLKYSETPF [SIX6OS1_Y129_YF] | 1.84
AQINLYQDVML [ZNF806_Y33] | 2.83
YTFTSYYMHWV [IGHV1-46_Y51] | 1.71
HHIDYYKKTTN [FGFR1_Y654] | 0.633
TKFRNYLIPKG [CYP2C8_Y379] | 0.565
KPNMNYDKLSQ [FLI1_Y332_R337Q] | 0.578
TDKLFYIYTPG [SLC27A4_Y243_S247P] | 1.34
LVPPRYVRSEI [PKP2_Y194_A195V] | 0.94
DLVSEYQQYQD [TUBB3_Y422] | 1.37
LRNIDYFRLDG [ATRX_Y2083_YF] | 4.09
PDSVDYPKKGF [CTSK_Y121_R122P_YF] | 1.78
NLSVPYDSSLK [ABCC8_Y1353_R1352P] | 0.68
GPIFRYDSGGA [CYP11B1_Y81_L83S] | 0.802
ISDNAYQYMLT [MYH7_Y162] | 1.23
NLTLKYPIEHG [ACTA1_Y71_I66N] | 0.93
GGGGSYNVFGN [HNRNPA1_Y312_D314V] | 0.742
PTTKTYFPHFH [HBA1_Y43_D48H] | 1.14
DSGKLYALDGL [INO80_Y1104_V1108G] | 1.02
DYLEKYYKFGC [NNMT_Y24_S29C] | 1.28
LEIETYRRLLD [KRT12_Y429] | 1.03
SHMVNYQPFRK [TEX37_Y25_D24N_YF] | 0.534

Biological target: Fyn (UniProt P06241)
Experiment: as above

Fyn, sequence (P06241 whole entry, looked up): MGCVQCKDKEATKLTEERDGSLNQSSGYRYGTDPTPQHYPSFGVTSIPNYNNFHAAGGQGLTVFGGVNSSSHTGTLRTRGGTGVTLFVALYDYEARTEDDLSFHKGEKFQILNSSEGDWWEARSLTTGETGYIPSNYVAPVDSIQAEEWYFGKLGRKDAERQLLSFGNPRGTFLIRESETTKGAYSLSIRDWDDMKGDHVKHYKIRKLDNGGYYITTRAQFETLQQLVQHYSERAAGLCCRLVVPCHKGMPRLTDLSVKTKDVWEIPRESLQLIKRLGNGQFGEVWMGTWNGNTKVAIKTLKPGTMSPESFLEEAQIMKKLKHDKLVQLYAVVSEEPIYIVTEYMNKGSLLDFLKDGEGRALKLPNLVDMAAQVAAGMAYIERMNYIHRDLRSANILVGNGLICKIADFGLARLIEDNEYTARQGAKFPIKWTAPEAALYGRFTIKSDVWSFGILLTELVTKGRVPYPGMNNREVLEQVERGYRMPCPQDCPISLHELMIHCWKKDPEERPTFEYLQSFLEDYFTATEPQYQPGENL

Sequence | phosphorylation enrichment
KYWREYILSLE [GPC3_Y299] | 0.427
VAMELYVFGGV [GAN_Y471] | 0.533
TKGNEYVFRVA | 0.496
DENWFYTQAAS [RPS19_Y54_R56Q] | 0.388
PTEAQYRFIYM [PTPN11_Y511_Q506P] | 1.04
FAKTQYPDVFA [CRX_Y63_YF] | 0.364
FLKDVYVDSKD [NDUFAF4_Y69] | 0.48
QFQLKYSETPF [SIX6OS1_Y129_YF] | 0.811
AQINLYQDVML [ZNF806_Y33] | 1.15
YTFTSYYMHWV [IGHV1-46_Y51] | 0.771
HHIDYYKKTTN [FGFR1_Y654] | 0.711
TKFRNYLIPKG [CYP2C8_Y379] | 0.365
KPNMNYDKLSQ [FLI1_Y332_R337Q] | 0.422
TDKLFYIYTPG [SLC27A4_Y243_S247P] | 0.422
LVPPRYVRSEI [PKP2_Y194_A195V] | 0.431
DLVSEYQQYQD [TUBB3_Y422] | 0.706
LRNIDYFRLDG [ATRX_Y2083_YF] | 2.77
PDSVDYPKKGF [CTSK_Y121_R122P_YF] | 1.17
NLSVPYDSSLK [ABCC8_Y1353_R1352P] | 0.41
GPIFRYDSGGA [CYP11B1_Y81_L83S] | 0.478
ISDNAYQYMLT [MYH7_Y162] | 0.553
NLTLKYPIEHG [ACTA1_Y71_I66N] | 0.47
GGGGSYNVFGN [HNRNPA1_Y312_D314V] | 0.441
PTTKTYFPHFH [HBA1_Y43_D48H] | 0.598
DSGKLYALDGL [INO80_Y1104_V1108G] | 0.763
DYLEKYYKFGC [NNMT_Y24_S29C] | 0.588
LEIETYRRLLD [KRT12_Y429] | 0.468
SHMVNYQPFRK [TEX37_Y25_D24N_YF] | 0.37
